Results on 24 molecules are retold here after patent publication US20200102347A1 (AUCTUS BIOLOGIES, published 2020).

Where a chain is given by its changes, count along the chain named. In names and notes the source's numbering stands. No end group written: not given here. *: point of attachment. RhodamineB = CCN(CC)c1ccc2c(-c3ccccc3C(=O)*)c3ccc(=[N+](CC)CC)cc-3oc2c1

By koff is commonly meant the rate constant with which the complex falls apart. Low values mean a long-lived complex, high ones a short-lived complex. As usually defined, the kon is a measure of how fast the partners come together. The Kd is the free concentration of one partner at which half of the binding sites on the other are occupied at equilibrium, for simple one-to-one binding. A higher Kd goes with weaker binding.

T1: NativeRPtag(large)_with_Tags_and_Cys (Thermoanaerobacter tengcongensis)
T1 construct: Unlabeled in anisotropy assays; coupled through the engineered N-terminal Cys to SulfoLink agarose or maleimide plates in column, pull-down and ELISA assays
T1 chain: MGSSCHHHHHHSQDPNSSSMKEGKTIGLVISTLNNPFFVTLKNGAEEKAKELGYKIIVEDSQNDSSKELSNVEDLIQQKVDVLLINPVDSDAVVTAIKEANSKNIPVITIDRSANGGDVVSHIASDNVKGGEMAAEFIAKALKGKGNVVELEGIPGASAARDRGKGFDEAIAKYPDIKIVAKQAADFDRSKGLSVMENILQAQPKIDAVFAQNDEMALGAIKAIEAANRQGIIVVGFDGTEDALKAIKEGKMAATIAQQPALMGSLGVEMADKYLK

T2: RPtag(small) Nd2, Cd4 (Thermoanaerobacter tengcongensis)
T2 peptide: RhodamineB-KIPNFIPAELKLITK

T3: NativeRPtag small for immobilization (Thermoanaerobacter tengcongensis, C-terminal Cys (GGC) coupled to SulfoLink agarose resin)
T3 construct: also called immobilized RPtag (small)
T3 peptide: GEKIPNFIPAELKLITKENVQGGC

T4: RPtag(small) l14k (Thermoanaerobacter tengcongensis, N-terminal rhodamine)
T4 construct: also called L14K RPtag(small)
T4 peptide: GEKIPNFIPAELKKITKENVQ

T5: native RPtag(small) (Thermoanaerobacter tengcongensis, N-terminal rhodamine)
T5 construct: Synthetic peptide
T5 peptide: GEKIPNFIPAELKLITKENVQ

T6: RPtag(small) l14a (Thermoanaerobacter tengcongensis, N-terminal rhodamine)
T6 peptide: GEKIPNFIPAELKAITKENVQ

T7: MaturePDGF-β_NterminalPeptide
T7 construct: an N-terminal G was added and is left out of the numbering; also called PDGF-β peptide
T7 peptide: RhodamineB-GSLGSLTIAEPAMIAE

B1: RPtag(large) f137d (designed binder)
chain: T1 chain with F137D
notes: also called F137D RPtag(large)
B2: k129h (designed binder)
single chain: T1 chain with K129H
notes: also called RPtag(large) K129H
B3: m270n (designed binder)
single chain: T1 chain with M270N
notes: also called RPtag(large) M270N
B4: k129y (designed binder)
single chain: T1 chain with K129Y
notes: also called RPtag(large) K129Y
B5: g130a (designed binder)
single chain: T1 chain with G130A
notes: also called RPtag(large) G130A
B6: d126a (designed binder)
single chain: T1 chain with D126A
notes: also called RPtag(large) D126A
B7: h122f (designed binder)
single chain: T1 chain with H122F
notes: also called RPtag(large) H122F
B8: m270r (designed binder)
single chain: T1 chain with M270R
notes: also called RPtag(large) M270R
B9: f137e (designed binder)
single chain: T1 chain with F137E
notes: single mutant of RPtag large; also called RPtag(large) F137E
B10: g130v (designed binder)
single chain: T1 chain with G130V
notes: also called RPtag(large) G130V
B11: f137s (designed binder)
single chain: T1 chain with F137S
notes: also called RPtag(large) F137S
B12: m270e (designed binder)
single chain: T1 chain with M270E
notes: also called RPtag(large) M270E
B13: f137t (designed binder)
single chain: T1 chain with F137T
notes: also called RPtag(large) F137T
B14: a253r (designed binder)
single chain: T1 chain with A253R
notes: also called RPtag(large) A253R
B15: d126w (designed binder)
single chain: T1 chain with D126W
notes: also called RPtag(large) D126W
B16: a253k (designed binder)
single chain: T1 chain with A253K
notes: also called RPtag(large) A253K
B17: h122a (designed binder)
single chain: T1 chain with H122A
notes: also called RPtag(large) H122A
B18: m270k (designed binder)
single chain: T1 chain with M270K
notes: also called RPtag(large) M270K
B19: h122l (designed binder)
single chain: T1 chain with H122L
notes: also called RPtag(large) H122L
B20: k129a (designed binder)
single chain: T1 chain with K129A
notes: also called RPtag(large) K129A
B21: k129f (designed binder)
single chain: T1 chain with K129F
notes: also called RPtag(large) K129F
B22: h122w (designed binder)
single chain: T1 chain with H122W
notes: also called RPtag(large) H122W
B23: Nterminally_tagged_NativeRPtag(large)_tagRFP (other)
chain: MGSSSQDPNSSSMKEGKTIGLVISTLNNPFFVTLKNGAEEKAKELGYKIIVEDSQNDSSKELSNVEDLIQQKVDVLLINPVDSDAVVTAIKEANSKNIPVITIDRSANGGDVVSHIASDNVKGGEMAAEFIAKALKGKGNVVELEGIPGASAARDRGKGFDEAIAKYPDIKIVAKQAADFDRSKGLSVMENILQAQPKIDAVFAQNDEMALGAIKAIEAANRQGIIVVGFDGTEDALKAIKEGKMAATIAQQPALMGSLGVEMADKYLKGSENLYFQGGSMVSKGEELIKENMHMKLYMEGTVNNHHFKCTSEGEGKPYEGTQTMRIKVVEGGPLPFAFDILATSFMYGSRTFINHTQGIPDFFKQSFPEGFTWERVTTYEDGGVLTATQDTSLQDGCLIYNVKIRGVNFPSNGPVMQKKTLGWEANTEMLYPADGGLEGRSDMALKLVGGGHLICNFKTTYRSKKPAKNLKMPGVYYVDHRLERIKEADKETYVEQHEVAVARYCDLPSKLGHKLNGSSGHHHHHHHH
notes: Fusion of RPtag(large), TEV site, tagRFP and 8XHis

In the first test the target is T1, NativeRPtag(large)_with_Tags_and_Cys. Briefly: fluorescence anisotropy, competitor chase. (In fluorescence polarisation assays a small probe gives low polarisation when free and higher when bound to something large.)
RhodamineB-KIANFIPAELKLITKANAA [RPtag(small) Nd2, p5a, e18a, v20a, q21a] registered a koff of 0.000217 s⁻¹.

The target in another test is T2, RPtag(small) Nd2, Cd4. Nature of the test: fluorescence anisotropy; 2 nM rhodamine Nd2Cd4, unlabeled RPtag large variant titrated; bar of Ka = 1/Kd, right axis.
Procedure: (§1) After the incubation, fluorescence anisotropy was measured, and the resultant curves were fit with the equation f=y0+(ymax−y0)*(Ptot+x+Kd−sqrt((Ptot+x+Kd)\hat{ }2−4*Ptot*x))/(2*Ptot), where y0 is the baseline anisotropy, ymax is the maximum anisotropy, Ptot is the fixed concentration of labeled peptide used, x is the variable concentration of protein used, and Kd is the measured Kd. […] Buffer was 50 mM Tris pH 8.0, 0.005% Tween20.
For the molecule B1, the binding result was “binds”.
As to B2, the binding result is given as “binds”.
Regarding B3, the binding result is on record as “binds”.
The same measure, in the same setting: the value for B4 was “binds”; that for B5 was “binds”.
On to B6, for which the binding result is “binds”.
On the same count and under the same terms, under B7 stands “binds”.
Turning to B8, the binding result is given as “binds”.
The same measure, in the same setting: the value for B9 was “binds”; that for B10 was “binds”; that for B11 was “binds”.
For B12, the binding result is on record as “binds”.
Still for that read-out and setting: under B13 stands “binds”; under B14, “binds”.
On the same count and under the same terms, under B15 stands “binds”; under B16, “binds”; under B17, “binds”.
On the same count and under the same terms, under B18 stands “binds”; under B19, “binds”; under B20, “binds”.
On to B21, for which the binding result was “binds”.
Still for that read-out and setting: the value for B22 was “binds”.

Another test deals with T3, NativeRPtag small for immobilization. Nature of the test: column binding; 25 mL of 1 µM tagRFP fusion applied to immobilized RPtag (small), washed with 10 mL TNE buffer, photographed.
Procedure: After purification of the tagged proteins, each was applied to its complementary column to evaluate binding. […] Briefly, columns were first equilibrated in 20 mM Tris pH 8.0, 150 mM NaCl, 1 mM EDTA (TNE buffer), then 25 mL of 1 μM tagged protein in TNE buffer was applied to the column at a flow rate of 1 ml/min, then washed with 10 mL of TNE buffer. Columns were cleaned with 10 mL 100 mM Glycine pH 1.5 between uses.
Briefly, columns were equilibrated in 20 mM Tris pH 8.0, 150 mM NaCl, 1 mM EDTA (TEN buffer), then 25 mL of 1 μM tagged protein in TEN buffer was applied to the column at a flow rate of 1 ml/min. Thereafter, the column was washed with 10 mL of TEN buffer, and the results recorded by photograph (FIG. 8). Columns were cleaned with 10 mL 100 mM Glycine pH 1.5 between uses.
As to B23, the binding result is listed as “binds”.

For another test, the target named is T1, NativeRPtag(large)_with_Tags_and_Cys. Briefly: column binding; non-complementary tagRFP fusion applied to immobilized RPtag (large), washed, photographed.
For the molecule B23, the binding result was “no binding (tested: 1 µM (25 mL applied))”.

The target is the same in the next test. Briefly: fluorescence anisotropy, association kinetics.
In the case of RhodamineB-KIANFIPAELKLITKANAA [RPtag(small) Nd2, p5a, e18a, v20a, q21a], the “Keq (S-S*)” value worked out at 0.4, the “kf (S to S*)” value was determined as 0.05 min⁻¹ and the “kr (S* to S)” value is 0.14 min⁻¹.

The target in another test is T4, RPtag(small) l14k. Briefly: fluorescence anisotropy; 1 nM rhodamine RPtag small peptide, unlabeled RPtag large titrated, 1 h; 50 mM Tris pH 8.0, 0.005% Tween20; bar of Ka = 1/Kd.
Procedure: (§2) Resultant curves were fit with the equation f=y0+(ymax−y0)*(Ptot+x+Kd−sqrt((Ptot+x+Kd)\hat{ }2−4*Ptot*x))/(2*Ptot), where y0 is the baseline anisotropy, ymax is the maximum anisotropy, Ptot is the fixed concentration of labeled peptide used, x is the variable concentration of protein used, and Kd is the measured Kd. […] Buffer was 50 mM Tris pH 8.0, 0.005% tween20.
With B1, the binding result is reported as “binds”.
In the case of B9, the binding result was “binds”.

The target in another test is T5, native RPtag(small). Described as above.
Procedure: as §2
For B1, the binding result is recorded as “binds”.
On the same count and under the same terms, the value for B9 was “binds”.

Another test deals with T6, RPtag(small) l14a. Described as above.
Procedure: as §2
B1: the binding result is on record as “binds”.
On the same count and under the same terms, under B9 stands “binds”.

For the next test, the target named is T7, MaturePDGF-β_NterminalPeptide. Nature of the test: fluorescence anisotropy; 20 nM rhodamine PDGF-β N-terminal peptide, unlabeled RPtag large variant titrated; bar of Ka = 1/Kd, left axis.
Procedure: as §1
As for B1, the binding result is “binds”.
Same read-out and setting: the value for B2 was “binds”.
B3: the binding result was “binds”.
The same measure, in the same setting: the value for B4 was “binds”; that for B5 was “binds”.
In the case of B6, the binding result is reported as “binds”.
In the case of B7, the binding result is “binds”.
On the same count and under the same terms, the value for B8 was “binds”.
Still for that read-out and setting: under B9 stands “binds”.
Still for that read-out and setting: under B10 stands “binds”.
As for B11, the binding result is recorded as “binds”.
Same read-out and setting: the value for B12 was “binds”.
Still for that read-out and setting: under B13 stands “binds”; under B14, “binds”; under B15, “binds”.
The same measure, in the same setting: the value for B16 was “binds”.
With B17, the binding result is listed as “binds”.
Same read-out and setting: under B18 stands “binds”; under B19, “binds”.
Same read-out and setting: the value for B20 was “binds”; that for B21 was “binds”; that for B22 was “binds”.

The target in a further test is T1, NativeRPtag(large)_with_Tags_and_Cys. Nature of the test: calculated from koff and Kd.
In the case of RhodamineB-KIANFIPAELKLITKANAA [RPtag(small) Nd2, p5a, e18a, v20a, q21a], the kon is 3.33e+06 M⁻¹ s⁻¹.

For the next test the target is unchanged. Nature of the test: fluorescence anisotropy.
With RhodamineB-KIANFIPAELKLITKANAA [RPtag(small) Nd2, p5a, e18a, v20a, q21a], the Kd came to 0.16 nM. In other words, the sub-nanomolar range.
